# In US20230272113A1:
# Positions count from the first letter of the chain named.
# B1: FL-56 (scFv)
# scFv: QVTLKESGPVLVKPTETLTLTCTVSGFSLRNVRMGVSWIRQPPGKALEWLAHIFSNDEKLYTTSLKSRLTISKDTSKSQVVLTMTNMDPEDTATYYCARIVGYGTGWYGYFDYWGQGTQVTVSSGGGGSGGGGSGGGGSDIQMTQSPSSLSASIGDRVTITCRASQDIRDDLGWYQREPGKAPKRLIYATSIRQSGVPSRFSGSGSGTEFTLTISGLQPEDFATYFCLQHHSFPLTFGGGTKVDIK
# B2: FL-59 (scFv)
# scFv: QVTLKESGPMLVKPTETLTLTCTVSGFSLRNVRMGVSWIRQPPGKALEWLAHIFSNDEKSYSTSLKSRLTISKDTSKSQVVLTLTNMDPVDTATYFCARMPEYSSGWSGAFDIWGQGTMVTVSSGGGGSGGGGSGGGGSDIQMTQSPSSLSASVGDRVTITCRASQDIRDDLGWYQQKPGNAPKRLIYGASTLQSGVPSRFSGSGSGTEFTLTISSLQPEDFATYYCLQHNSYPLTFGGGTRLEIK
# B3: FL-4 (scFv)
# scFv: QVTLKESGPALVKPTETLTLTCTLSGFSLNNAKMGVSWIRQPPGKALEWLAHIFSNDEKSYSTSLKSRLTISKDTSKGQVVLTMTNMDPVDTATYYCARIVGYGSGWYGYFDYWGQGTLVTVSSGGGGSGGGGSGGGGSDIQMTQSPSSLSASVGDRVTITCRASQDIRDDLGWYQQKPGNAPKRLIYGASTLQSGVPSRFSGSGSGTEFTLTISSLQPEDFATYYCLQHNSYPLTFGGGTKVDIK
# B4: FL-5 (scFv)
# scFv: QVTLKESGPMLVKPTETLTLTCTFSGFSLRNARMGVSWIRQPPGKALEWLAHIFWNDEKSYSTSLKSRLTISKDTSKSQVVLTMTNMDPVDTATYYCARIPYYGSGSYNYGMDVWGQGTTVTVSSGGGGSGGGGSGGGGSDIQMTQSPSSLSASVGDRVTITCRASQGIRNDLGWYQQKPGKAPKRLIYAASSLQSGVPSRFSGSGSGTEFTLTISSLQPEDFATYYCLQHNTYPLTFGGGTKVDIK
# B5: FL-51 (scFv)
# scFv: QVTLKESGPTLVKPTETLTLTCTVSGFSLRNVRMGVSWIRQPPGKCLEWLAHISSNDEKSYSTSLRSRLTISTDTSKSQVVLTMTNMDPVDTATYYCARMPGDSNTWRGFFDYWGQGTLVTVSSGGGGSGGGGSGGGGSEIVMTQSPATLSVSPGERATLSCRTSQSVNNNLAWYQQKPGQAPRLLIYGASTRATGIPARFSGSGSGTEFTLTISSLQPEDFATYYCLQHNSYPLTFGCGTKVEIK
# B6: FL-58 (scFv)
# scFv: B5 scFv with C46A, C239G
# B7: FL-1 (scFv)
# scFv: QVTLKESGPVLVKPTETLTLTCTVSGFSLINARMGVSWIRQPPGKALEWLAHIFSNAEKSYRTSLKSRLTISKDTSKSQVVLTMTNMDPVDTATYYCARIPGYGGNGDYHYYGMDVWGQGTTVTVSSGGGGSGGGGSGGGGSDIQMTQSPSSLSASLGDRVTITCRASQGIRNDLGWYQQKPGKAPKRLIYASSTLQSGVPSRFSGSGSGTEFTLTISSLQPEDFATYYCLQHNNFPWTFGQGTKVEIK
# B8: FL-52 (scFv)
# scFv: QVTLKESGPTLVKPTETLTLTCTFSGFSLRYARMGVSWIRQPPGKCLEWLAHIFSNDEKSYSTSLKSRLTISKDTSKSQVVLTLTNMDPVDTATYFCARMPEYSSGWSGAFDIWGQGTMVTVSSGGGGSGGGGSGGGGSDIQMTQSPSSLSASVGDRVTITCRASQDIRNDLAWYQQKPGKAPKRLIYAASSLQSGVPSRFSGSGSGTEFTLTISSLQPEDFATYYCLQHNSYPLTFGCGTKLEIK
# B9: FL-6 (scFv)
# scFv: QVTLKESGPTLVKPTETLTLTCTLSGFSLNNARMAVSWIRQPPGKTLEWLAHIFSNDEKSYSPSLKSRLTISKDTSKSQVVLTMTNMDPEDTATYYCARIVGYGTGWYGFFDYWGQGILVTVSSGGGGSGGGGSGGGGSDIQMTQSPSSLSASVGDRVTITCRASQGIRNDLGWFQQKPGKAPKRLIYAASVLQSGVPSRFSGSGSGTEFTLTISSLQPEDFATYYCLQHNSYPLTFGGGTKVDIK
# B10: FL-60 (scFv)
# scFv: QVTLKESGPALVKPTQTLTLTCTFSGFSLSNARMGVSWIRQPPGKALEWLAHIFSNDEKSYSTSLKSRLTISKDTSKRQVVLTMTNMDPVDTATYYCARMVGYGSGWYAYFDYWGQGTLVTVSSGGGGSGGGGSGGGGSDIVMTQTPLSLSVTPGQPASISCRSSQSLLHSNGYNYLYWYLQKPGQPPQLLIYEVSNRFSGVPDRFSGSGSGTDFTLKISRVEAEDVGVYYCMQALQTPLTFGGGTKVEIK
# B11: FL-2 (scFv)
# scFv: QVTLKESGPVLVKPTETLTLTCTVSGFSLRNARMGVSWIRQPPGKALEWLAHIFSNDEKTYSTSLKSRLTISRDTSKGQVVLTMTKMDPVDTATYYCARIPYYGSGSHNYGMDVWGQGTTVTVSSGGGGSGGGGSGGGGSDIQMTQSPSSLSASVGDRVTITCRASQDIRNDFGWYQQKPGKAPQRLLYAASTLQSGVPSRFSGSGSGTEFTLTISSLQPEDFATYYCLQYNTYPWTFGQGTKVEIK
# B12: FL-54 (scFv)
# scFv: QVQLVESGGGVVQPGRSLRLSCAASGFTFSSYGMHWVRQAPGKCLEWVAVISYDGSNEFYADSVKGRFTISRDNSKNTLYLQMNSLRAEDTAVYYCARGGEITMVRGVIGYYYYGMDVWGQGTTVTVSSGGGGSGGGGSGGGGSEIVMTQSPATLSVSPGERATLSCRASQGVRNNLVWYQQKPGQAPRLLIYGASTRATGIPARFSGSGSGTEFTLTISSLQSEDFATYYCLQHNSYPLTFGCGTKVEIK
# B13: FL-62 (scFv)
# scFv: B12 scFv with C44G, C244G
# B14: FL-8 (scFv)
# scFv: QVTLKESGPALVKPTETLTLTCTVSGFSLSYARMGVSWIRQPPGKALEWLAQIFSNDEKSYSTSLKSRLTISKGTSNSQVVLTMTNMDPEDTATYYCARIVGYGTGWYGFFDYWGQGILVTVSSGGGGSGGGGSGGGGSDIQMTQSPSSLSASVGDRVTITCRASQGIRNDLGWYQQKPGKAPKRLIYAASSLQSGVPSRFSGSGSGTEFTLTISSLQPEDFATYYCLQHNSYPLTFGGGTKVDIK
# B15: FL-53 (scFv)
# scFv: QVQLVESGGGVVQPGRSLRLSCAASGFTFSSYGMHWVRQAPGKCLEWVAVISYDGSNEFYADSVKGRFTISRDNSKNTLYLQMNSLRAEDTAVYYCARGGEITMVRGVIGYYYYGMDVWGQGTTVTVSSGGGGSGGGGSGGGGSDIQMTQSPSSLSASVGDRVTITCRTSQSISSYLNWYQQKPGKAPKLLIYAASSLQSGVPSRFSGSGSGTEFTLTISSLQPEDFATYYCLQHNSYPLTFGCGTKVDIK
# B16: FL-64 (scFv)
# scFv: B15 scFv with C44G, D161N, T169A, C244G
# B17: FL-63 (scFv)
# scFv: B15 scFv with C44G, C244G
# B18: FL-61 (scFv)
# scFv: B15 scFv with C44G, T169A, C244G, D249E
# B19: FL-57 (scFv)
# scFv: QVTLKESGPTLVKPTETLTLTCTFSGFSLRYARMGVSWIRQPPGKALEWLAHISSNDEKSFSTALESRLTISTDTSKSQMVLTMTNVDPVDTATYYCARMPGDSNTWRGFFDYWGQGTLVTVSSGGGGSGGGGSGGGGSEIVMTQSPGTLSLSPGERATLSCRTSQTVTNSYIAWYQQRPGQAPRLLIYGTSTRATGIPDRFSGSGSGTDFTLTISRLEPEDFAVYYCQKYGSSPLTFGGGTKLEIK
# B20: FL-7 (scFv)
# scFv: QVTLKESGPTLVKPTETLTLTCTVSGFSLNNARMGVSWIRQPPGKALEWLAHIFSNDEKSYSTSLKNRLTISKDSSKTQVVLTMTNVDPVDTATYYCARIVGYGTGWFGYFDYWGQGTQVTVSSGGGGSGGGGSGGGGSDIQMTQSPSSLSASVGDRVTITCRASQDIRTDLAWYQQKPGKAPKRLIYAASSLQSGVPSRFSGSGSGTEFTLTISSLQPEDFATYYCLQHNRYPLTFGGGTKVDIK
# B21: FL-3 (scFv)
# scFv: QVTLKESGPALVKPTETLTLTCTVSGFSLSNARMAVSWIRQPPGKALEWLAHIFSNGEKSYSTSLKSRLTISKDTSKTQVVLTMTNTDPVDTATYFCARIVGYSDWLLPFDHWGQGIMVTVSSGGGGSGGGGSGGGGSDIQMTQSPSSLSASVGDRVTITCRASQNINRFLNWYQQKPGKAPKLLIYAASSLQSGVPSRFSGSGSGTDFTLTISSLQPEDFATYYCLQHNSYPWTFGQGTKVDIK
# Target: human FLT3 on transfected CHO cells (human) (UniProt P36888)
# Assay: FACS, scFv on CHO-human FLT3 cells pre-incubated with FLT3 ligand (competitor)
row,median [+ligand]/median [w/o ligand]*100 [%],Binder
1,> 75,B1
2,> 75,B2
3,> 75,B3
4,> 75,B4
5,> 75,B5
6,> 75,B6
7,> 75,B7
8,> 75,B8
9,> 75,B9
10,> 75,B10
11,> 75,B11
12,> 75,B12
13,> 75,B13
14,> 75,B14
15,> 75,B15
16,> 75,B16
17,> 75,B17
18,> 75,B18
19,> 75,B19
20,> 75,B20
21,> 75,B21
